Measurements from US20110300071A1, “TARGETING NPR-C IN ANGIOGENESIS AND ATHEROSCLEROSIS WITH A C-TYPE ATRIAL NATRIURETIC FACTOR (CANF)-COMB NANOCOMPLEX” (Washington University, priority 2010, published 2011).
Positions of bridges follow the written chain, without caps; N, C: chain ends. Residues, ends and D or L forms follow the SMILES beside them. No end group written: not given here. *: point of attachment. DOTA = O=C(O)CN1CCN(CC(=O)O)CCN(CC(=O)*)CCN(CC(=O)O)CC1

Assays:
[1] = in vitro; format: in vitro ADME; conditions: rabbit, serum
Method: On the contrary, only free ^64Cu was detected in the control samples (^64Cu-acetate incubated in rabbit serum) by radio-HPLC.

[2] = in vivo; conditions: rabbit, iv, total radioactivity
Method: In these experiments, the blood clearance studies were performed in normal rabbits (n=4) to evaluate the pharmacokinetics of tracer in vivo. About 20 MBq of ^64Cu-DOTA-C-ANF was injected intravenously into the left ear of rabbit, and blood sample (0.2 mL) was drawn from the contralacteral ear over the period of 1 h (1 min, 3 min, 5 min, 10 min, 20 min, 40 min and 60 min). The activity of the blood samples were counted in gamma counter and presented in percent injected dose per gram (ID %/g).

[3] = system: atherosclerotic lesions; assay: MRI of Gadofluorine uptake in atherosclerotic-like lesions; format: in vivo, rabbit; conditions: 3T MRI 1 hour after administration
Method: The presence of atherosclerotic lesions in the rabbits was confirmed by 3T MRI 1 hour after administration of a non-receptor specific plaque-targeting contrast agent (Gadofluorine M, 0.5 μmol/kg body weight, Schering AG, Germany) (Sirol, M., et al., Circulation 109:2890-2896, 2004; Zheng, J., et al., Invest. Radiol. 43:49-55, 2008; Meding, J., et al., Mol. Imaging 2:120-129, 2007). […] For scanning, the rabbit was placed supine into a plastic bed. Three micropipette tubes filled with 0.5 mL Gadofluorine M served as fiducial markers, and were taped into position on the bed. At the beginning of the PET study, these tubes were drained of the Gadofluorine by syringe, and refilled with 0.5 mL of ^64Cu to serve as the PET fiducials. These helped to “co-localize” the plaque regions between the two image modalities.

[4] = target: T1, natriuretic peptide clearance receptor (NPR-C), mouse (mouse, UniProt P70180 41-536); assay: cell-based or functional assay
T1 sequence (looked up): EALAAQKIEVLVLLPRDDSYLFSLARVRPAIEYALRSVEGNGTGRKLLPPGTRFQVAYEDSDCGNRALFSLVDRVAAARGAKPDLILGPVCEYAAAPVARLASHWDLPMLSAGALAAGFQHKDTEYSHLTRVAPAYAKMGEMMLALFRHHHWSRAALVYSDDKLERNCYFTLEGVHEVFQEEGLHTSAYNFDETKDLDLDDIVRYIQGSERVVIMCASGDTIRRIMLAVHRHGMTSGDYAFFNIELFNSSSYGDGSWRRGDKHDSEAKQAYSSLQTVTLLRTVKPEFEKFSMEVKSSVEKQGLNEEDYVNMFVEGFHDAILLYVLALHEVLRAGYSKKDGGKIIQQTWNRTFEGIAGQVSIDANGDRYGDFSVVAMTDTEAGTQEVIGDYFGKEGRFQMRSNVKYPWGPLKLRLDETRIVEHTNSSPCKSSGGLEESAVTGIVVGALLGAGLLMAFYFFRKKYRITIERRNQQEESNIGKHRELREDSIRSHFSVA

[5] = target: T2, natriuretic peptide clearance receptor (NPR-C), rabbit (rabbit, UniProt G1SZF5 25-536); assay: cell-based or functional assay
T2 sequence: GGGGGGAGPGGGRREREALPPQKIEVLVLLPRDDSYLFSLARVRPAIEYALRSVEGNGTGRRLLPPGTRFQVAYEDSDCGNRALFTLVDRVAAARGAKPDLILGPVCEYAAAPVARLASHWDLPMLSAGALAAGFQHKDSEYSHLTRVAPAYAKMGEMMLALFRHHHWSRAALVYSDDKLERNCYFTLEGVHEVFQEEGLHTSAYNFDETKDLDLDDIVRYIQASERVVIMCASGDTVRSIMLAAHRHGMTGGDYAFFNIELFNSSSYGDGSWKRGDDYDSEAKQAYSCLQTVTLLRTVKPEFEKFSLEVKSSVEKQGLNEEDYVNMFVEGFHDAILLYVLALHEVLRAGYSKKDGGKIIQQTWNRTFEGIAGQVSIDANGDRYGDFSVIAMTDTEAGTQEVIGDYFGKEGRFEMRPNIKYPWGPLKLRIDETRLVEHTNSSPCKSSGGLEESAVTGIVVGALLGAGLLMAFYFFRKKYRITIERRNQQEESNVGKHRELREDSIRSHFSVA

[6] = target: T2, natriuretic peptide clearance receptor …; assay: cell-based or functional assay; remark: listed apart in the source
[7] = target: natriuretic peptide clearance receptor (NPR-C), mouse (mouse) (UniProt P70180); assay: cell-based or functional assay
[8] = target: natriuretic peptide clearance receptor (NPR-C), rabbit (rabbit) (UniProt G1SZF5); assay: cell-based or functional assay

## CC[C@H](C)[C@@H]1NC(=O)[C@H](CCCNC(=N)N)NC(=O)[C@H](CC(=O)O)NC(=O)[C@H]([C@@H](C)CC)NC(=O)[C@H](CCCNC(=N)N)NC(=O)CNC(=O)CNC(=O)[C@H](Cc2ccccc2)NC(=O)[C@@H](NC(=O)[C@H](CO)NC(=O)[C@H](CO)NC(=O)[C@H](CCCNC(=N)N)NC(=O)CN2CCN(CC(=O)O)CCN(CC(=O)O)CCN(CC(=O)O)CC2)CSSC[C@@H](C(N)=O)NC(=O)[C@H](C)NC(=O)CNC1=O [^64Cu-DOTA-CANF, metal not drawn] ({DOTA}-RSSCFGGRIDRIGAC-NH2; disulfide 4-15)
[1]
  remaining at 1 h: 97.7 ± 3.9%
[2]
  tissue uptake at 0.05 h: 0.1 %ID/g

## CC(C(=O)NCC(=O)NCCCC[C@H](NC(=O)CO[C@H]1O[C@H](CO)[C@@H](O)[C@H](O)[C@@H]1O)C(=O)N1CCN(S(=O)(=O)C(F)(F)C(F)(F)C(F)(F)C(F)(F)C(F)(F)C(F)(F)C(F)(F)C(F)(F)F)CC1)N1CCN(CC(=O)O)CCN(CC(=O)O)CCN(CC(=O)O)CC1 (stereo partly shown) [Gadofluorine M]
[3]
  uptake in control arteries (MRI): no Gadofluorine M uptake
[3]; all rabbits, all time points
  MRI signal in injured vessels: increased signal

## RSSCFGGRIDRIGAC-NH2 (disulfide 4-15; also: DOTA conjugated, site not given here, 64Cu chelated) [^64Cu labeled DOTA-C-type atrial natriuretic factor (CANF) conjugate]
[4]
  ischemic/nonischemic uptake ratio, after blocking with unlabeled CANF: 1.24 ratio
  ischemic/nonischemic uptake ratio, before blocking: 2.34 ratio
[5]
  SUV ratio injured/control arteries, blocking with unlabeled C-ANF: 1.07 ratio
  SUV ratio injured/control arteries, pre-blocking: 1.42 ratio
  target-to-background ratio injured artery/muscle, blocking: 2.13 ratio
  target-to-background ratio injured artery/muscle, pre-blocking: 3.05 ratio
[6]
  Injury/control SUV ratios, 1 h: 1.87 ratio
  Injury/muscle SUV ratios, 1 h: 3.39 ratio

B1: ^64Cu-DOTA-CANF-Comb nanoprobe (peptide)
peptide: RSSCFGGRIDRIGAC-NH2
modifications: disulfide 4-15; also: acylated with 4-pentynoic anhydride, clicked to azide-PEG methacrylate of PMMA-core/PEG-shell comb copolymer nanoparticle, DOTA in particle core chelates 64Cu
[7]
  ischemic/nonischemic uptake ratio, 1 h p.i.: 4.35
  ischemic/nonischemic uptake ratio, 24 h p.i.: 5.35
  tracer uptake in ischemic limb, 1 h p.i.: 6.3 % ID/g
  tracer uptake in ischemic limb, 24 h: 8.5 % ID/g
  uptake in lesion site with receptor blocking, 1 h: 3.34
  uptake in lesion site with receptor blocking, 4 h: 3.34
  uptake in lesion site with receptor blocking, 24 h: 3.31
  uptake ratio with receptor blocking, 1 h p.i.: 1.93
  uptake ratio with receptor blocking, 4 h p.i.: 1.87
  uptake ratio with receptor blocking, 24 h p.i.: 1.82

## RSSCFGGRIDRIGAC-NH2 (disulfide 4-15; not fully specified; also: 64Cu label) [^64Cu-CANF-Comb (25% CANF-Comb)]
[8]
  Injury SUV, 1 h: 5.31 SUV
  Injury SUV, 4 h: 4.76 SUV
  Injury SUV, 24 h: 3.74 SUV
  Injury/control SUV ratios, 1 h: 4.07
  Injury/control SUV ratios, 4 h: 4.07
  Injury/control SUV ratios, 24 h: 4.24
  Injury/muscle SUV ratios, 1 h: 38.2
  Injury/muscle SUV ratios, 4 h: 37.7
  Injury/muscle SUV ratios, 24 h: 40.8
